Source: patent US20030148389A1 (SERONO GENETICS INSTITUTE S A, published 2003)

Biological target: T1, PAPAP protein (human)
T1 construct: Identified by expression cloning; COS-1 cells transfected with the cDNA clone were stained by the AP fusion probe; also called PAPAP polypeptide; PAPAP gene product
Test: in situ receptor binding assay: AP staining of COS-1 cells transfected with human brain cDNA pools, incubated with PAP-AP fusion medium
Procedure: Plasmid DNA was obtained from pools of ˜1000 colonies using the QiaPrep Spin Miniprep kit (Qiagen). These pools of DNA were then transiently transfected into COS-1 cells as follows. Two micrograms of DNA from each pool of human brain cDNAs was diluted into 200 ul of serum-free medium (DMEM medium from Gibco-BRL with no additives). The DNA was complexed to the PLUS reagent by adding 12 ul of (mixed prior to use) PLUS reagent to the DNA in serum-free medium. 200 ul of the DNA-PLUS-Lipofectamine reagent complexes was added to wells containing Cos-1 cells plated at 0.25×10⁵ cells per well in 6 well dishes (35 mm) the day prior to transfection (in complete medium containing no antibiotics). Previous to the addition of the DNA/lipofectamine/PLUS complex, the complete medium was removed from the cells and replaced with 800 ul serum-free medium. Cells were incubated at 37 degrees C. at 5% CO₂ for 3 hours; then the medium in each well was replaced with 2 ml of complete medium.
Two days after transfection, cell staining was begun. Culture medium was removed from cells in the 6 well dishes. […]

T1 sequence (chain, as listed by the source limits assumed): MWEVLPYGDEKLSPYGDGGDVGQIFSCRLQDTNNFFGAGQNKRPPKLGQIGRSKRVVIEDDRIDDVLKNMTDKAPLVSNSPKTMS

B1: g34872 peptide-alkaline phosphatase fusion protein (other)
chain: DAAQPARRARRTYEAYQPLERMWTCNYNQQKDQSCNHKEITSTKAERRSSGIIPVEEENPDFWNREAAEALGAAKKLQPAQTAAKNLIIFLGDGMGVSTVTAARILKGQKKDKLGPEIPLAMDRFPYVALSKTYNVDKHVPDSGATATAYLCGVKGNFQTIGLSAAARFNQCNTTRGNEVISVMNRAKKAGKSVGVVTTTRVQHASPAGTYAHTVNRNWYSDADVPASARQEGCQDIATQLISNMDIDVILGGGRKYMFPMGTPDPEYPDDYSQGGTRLDGKNLVQEWLAKRQGARYVWNRTELMQASLDPSVTHLMGLFEPGDMKYEIHRDSTLDPSLMEMTEAALRLLSRNPRGFFLFVEGGRIDHGHHESRAYRALTETIMFDDAIERAGQLTSEEDTLSLVTADHSHVFSFGGYPLRGSSIFGLAPGKARDRKAYTVLLYGNGPGYVLKDGARPDVTESESGSPEYRQQSAVPLDEETHAGEDVAVFARGPQAHLVHGVQEQTFIAHVMAFAACLEPYTACDLAPPAGTTDAAHPGYLEEALSLEGPEQKLISEEDLNSAVDHHHHHH
notes: Used as conditioned medium from stably transfected 293T cells; The vector has a secretion signal upstream of the insert; also called PAP-AP fusion protein; AP fusion protein
  binding result: binds
